Holding throughout (assay type): biochemical
One experiment has as its target T1, CK2 (Homo sapiens, UniProt P68400).
T1 construct: purchased Millipore (assay service)
Nature of the experiment: Millipore radiometric kinase activity assay, CK2 (h). The procedure: (§1) A commercial radiometric assay service (Millipore, Billerica, Mass.) was used to test the specificity and potency of peptides containing a coupled transduction domain and therapeutic domain, hereinafter “complete peptides”). In these assays, if the kinase is not inhibited by an inhibitor peptide, a positively charged substrate is phosphorylated with a radiolabeled phosphate group from an ATP.
In a final reaction volume of 25 μL, CK2 (h) (5-10 mU) is incubated with 20 mM HEPES pH 7.6, 0.15 M NaCl, 0.1 mM EDTA, 5 mM DTT, 0.1% Triton X-100, 165 μM […] [SEQ ID NO: 55], 10 mM MgAcetate and [γ-^33P-ATP] (specific activity approx. 500 cpm/pmol, concentration as required). The reaction is initiated by the addition of the MgATP mix. After incubation for 40 minutes at room temperature, the reaction is stopped by the addition of 5 μL of a 3% phosphoric acid solution. 10 μL of the reaction is then spotted onto a P30 filtermat and washed three times for 5 minutes in 75 mM phosphoric acid and once in methanol prior to drying and scintillation counting.
(§2) IC50 values for inhibitor peptides were determined using Millipore's IC50Profiler Express service. The IC50 value was estimated from a 10-point curve of one-half log dilutions. For peptides tested for specificity, the concentration of the peptides that inhibited approximately 95% of MK2 activity was chosen to profile against a battery of kinases related to MK2, cell viability, or human disease from MilliporeKinaseProfiler service. In both assays, compounds were supplied in dimethylsulfoxide (DMSO). Every kinase activity measurement was conducted in duplicate.
(§3) Therapeutic inhibitor peptides were assayed for activity against human kinases related to MK2, cell viability, or human disease. The assays were performed using concentrations of therapeutic inhibitor peptides that yielded 2% to 8% of normal MK2 activity. Error is reported as the standard deviation between 2 samples, and “c” is rat AMPK whereas all other kinases used are human kinases.

The target in another experiment is T2, FGFR1 (Homo sapiens, UniProt P11362).
T2 construct: purchased Millipore (assay service)
T2 sequence (P11362 22-822): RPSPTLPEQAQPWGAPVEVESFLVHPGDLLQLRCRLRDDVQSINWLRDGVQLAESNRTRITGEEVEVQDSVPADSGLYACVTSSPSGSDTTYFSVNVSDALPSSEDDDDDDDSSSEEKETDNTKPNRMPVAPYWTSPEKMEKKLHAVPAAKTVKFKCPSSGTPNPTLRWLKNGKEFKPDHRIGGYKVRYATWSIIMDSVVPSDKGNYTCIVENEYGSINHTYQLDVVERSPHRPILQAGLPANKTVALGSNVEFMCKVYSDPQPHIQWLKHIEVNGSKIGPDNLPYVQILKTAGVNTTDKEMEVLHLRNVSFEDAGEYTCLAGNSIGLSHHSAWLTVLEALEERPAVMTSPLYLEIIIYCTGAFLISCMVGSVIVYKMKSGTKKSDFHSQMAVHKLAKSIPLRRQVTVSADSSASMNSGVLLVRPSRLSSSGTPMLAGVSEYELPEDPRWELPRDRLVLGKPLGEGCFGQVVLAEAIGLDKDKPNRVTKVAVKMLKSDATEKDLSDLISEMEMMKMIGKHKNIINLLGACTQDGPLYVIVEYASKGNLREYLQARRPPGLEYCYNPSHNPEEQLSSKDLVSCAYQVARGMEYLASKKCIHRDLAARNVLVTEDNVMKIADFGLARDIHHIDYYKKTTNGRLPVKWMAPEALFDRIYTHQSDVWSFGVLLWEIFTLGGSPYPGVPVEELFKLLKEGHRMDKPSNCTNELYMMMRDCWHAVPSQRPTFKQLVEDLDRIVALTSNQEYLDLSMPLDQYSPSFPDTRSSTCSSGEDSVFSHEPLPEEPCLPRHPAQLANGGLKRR
Nature of the experiment: Millipore radiometric kinase activity assay, FGFR1 (h). The procedure: as §1
(§4) In a final reaction volume of 25 μL, FGFR1 (h) (5-10 mU) is incubated with 8 mM MOPS pH 7.0, 0.2 mM EDTA, 250 μM […] [SEQ ID NO: 56], 10 mM MgAcetate and [γ-^33P-ATP] (specific activity approx. 500 cpm/pmol, concentration as required). The reaction is initiated by the addition of the MgATP mix. After incubation for 40 minutes at room temperature, the reaction is stopped by the addition of 5 μL, of a 3% phosphoric acid solution. 10 μL, of the reaction is then spotted onto a P30 filtermat and washed three times for 5 minutes in 75 mM phosphoric acid and once in methanol prior to drying and scintillation counting.
as §2, §3

Another experiment addresses T3, Met (Homo sapiens, UniProt P08581).
T3 construct: purchased Millipore (radiometric assay service)
Description: Millipore radiometric kinase activity assay, Met (h). The procedure:
as §1
as §4, with “25 μL, Met (h) (5-10” for “25 μL, FGFR1 (h) (5-10”, “of 5 μL of a” for “of 5 μL, of a”, “solution. 10 μL of the” for “solution. 10 μL, of the”
as §2, §3

The target in another experiment is T4, PKCβI (Homo sapiens, UniProt P05771).
T4 construct: purchased Millipore (radiometric assay service)
T4 sequence (P05771 whole entry): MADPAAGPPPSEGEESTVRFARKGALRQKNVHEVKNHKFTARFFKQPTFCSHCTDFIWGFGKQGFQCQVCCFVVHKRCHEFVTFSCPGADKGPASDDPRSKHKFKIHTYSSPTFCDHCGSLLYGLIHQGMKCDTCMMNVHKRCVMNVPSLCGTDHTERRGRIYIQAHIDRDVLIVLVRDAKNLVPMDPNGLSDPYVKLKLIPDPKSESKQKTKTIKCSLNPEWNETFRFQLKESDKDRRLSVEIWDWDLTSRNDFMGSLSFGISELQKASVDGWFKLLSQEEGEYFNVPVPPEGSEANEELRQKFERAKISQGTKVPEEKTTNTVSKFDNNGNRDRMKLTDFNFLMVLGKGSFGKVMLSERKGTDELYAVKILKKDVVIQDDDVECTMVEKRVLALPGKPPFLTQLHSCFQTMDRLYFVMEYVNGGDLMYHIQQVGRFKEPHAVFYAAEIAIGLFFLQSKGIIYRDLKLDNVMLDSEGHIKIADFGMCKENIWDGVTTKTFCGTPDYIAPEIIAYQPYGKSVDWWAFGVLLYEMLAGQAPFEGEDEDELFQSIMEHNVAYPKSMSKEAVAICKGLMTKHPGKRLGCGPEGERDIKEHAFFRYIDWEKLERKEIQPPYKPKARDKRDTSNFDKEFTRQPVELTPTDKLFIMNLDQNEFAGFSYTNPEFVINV
Description: Millipore radiometric kinase activity assay, PKCβI (h). The procedure:
as §1
In a final reaction volume of 25 μL, PKCβI (h) (5-10 mU) is incubated with 20 mM HEPES pH 7.4, 0.03% Triton X-100, 0.1 mM CaCl2, 0.1 mg/mL phosphatidylserine, 10 μg/mL diacylglycerol, 0.1 mg/mL histone H1, 10 mM MgAcetate and [γ-^33P-ATP] (specific activity approx. 500 cpm/pmol, concentration as required). The reaction is initiated by the addition of the MgATP mix. After incubation for 40 minutes at room temperature, the reaction is stopped by the addition of 5 μL of a 3% phosphoric acid solution. 10 μL of the reaction is then spotted onto a P30 filtermat and washed three times for 5 minutes in 75 mM phosphoric acid and once in methanol prior to drying and scintillation counting.
as §2, §3

The next experiment concerns the target T5, Rsk2 (Homo sapiens, UniProt P51812).
T5 construct: purchased Millipore (radiometric assay service)
Description: Millipore radiometric kinase activity assay, Rsk2 (h). The procedure:
as §1
(§5) In a final reaction volume of 25 μL, Rsk2 (h) (5-10 mU) is incubated with 8 mM MOPS pH 7.0, 0.2 mM EDTA, 30 μM […] [SEQ ID NO: 64], 10 mM MgAcetate and [γ-^33P-ATP] (specific activity approx. 500 cpm/pmol, concentration as required). The reaction is initiated by the addition of the MgATP mix. After incubation for 40 minutes at room temperature, the reaction is stopped by the addition of 5 μL it of a 3% phosphoric acid solution. 10 μL, of the reaction is then spotted onto a P30 filtermat and washed three times for 5 minutes in 75 mM phosphoric acid and once in methanol prior to drying and scintillation counting.
as §2, §3

The target in the next experiment is T6, Src (residues 1-530) (Homo sapiens, UniProt P12931).
T6 construct: SRC (1-530) (h) (5-10 mU) is incubated; purchased Millipore (radiometric assay service)
Nature of the experiment: Millipore radiometric kinase activity assay, SRC (1-530) (h). The procedure: as §1
as §5, with “μL, SRC (1-530)” for “μL, Rsk2”, “EDTA,[…]” for “EDTA, 30 μM”, “NO: 58],” for “NO: 64],”, “μL” for “μL it”, “10 μL” for “10 μL,”
as §2, §3

T5 sequence (P51812 whole entry): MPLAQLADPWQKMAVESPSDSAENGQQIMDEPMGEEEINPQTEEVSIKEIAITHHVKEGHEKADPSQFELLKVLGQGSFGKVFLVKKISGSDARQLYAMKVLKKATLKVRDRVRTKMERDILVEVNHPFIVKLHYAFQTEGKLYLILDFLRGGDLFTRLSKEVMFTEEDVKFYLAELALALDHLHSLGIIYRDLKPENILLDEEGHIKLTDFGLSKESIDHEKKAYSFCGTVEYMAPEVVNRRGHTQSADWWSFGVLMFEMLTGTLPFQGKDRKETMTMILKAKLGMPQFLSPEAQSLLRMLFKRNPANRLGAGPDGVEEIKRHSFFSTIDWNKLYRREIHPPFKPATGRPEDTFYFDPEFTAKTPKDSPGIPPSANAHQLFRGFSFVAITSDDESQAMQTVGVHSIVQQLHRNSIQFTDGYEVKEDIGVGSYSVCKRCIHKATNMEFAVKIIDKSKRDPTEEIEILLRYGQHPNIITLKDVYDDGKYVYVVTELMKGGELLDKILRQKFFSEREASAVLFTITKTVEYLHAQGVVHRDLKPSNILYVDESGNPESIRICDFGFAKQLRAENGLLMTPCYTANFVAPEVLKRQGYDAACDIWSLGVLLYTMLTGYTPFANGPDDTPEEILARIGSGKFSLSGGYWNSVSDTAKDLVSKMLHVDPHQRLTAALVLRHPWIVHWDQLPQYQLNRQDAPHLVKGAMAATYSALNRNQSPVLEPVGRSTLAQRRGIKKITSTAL
T1 sequence (P68400 whole entry): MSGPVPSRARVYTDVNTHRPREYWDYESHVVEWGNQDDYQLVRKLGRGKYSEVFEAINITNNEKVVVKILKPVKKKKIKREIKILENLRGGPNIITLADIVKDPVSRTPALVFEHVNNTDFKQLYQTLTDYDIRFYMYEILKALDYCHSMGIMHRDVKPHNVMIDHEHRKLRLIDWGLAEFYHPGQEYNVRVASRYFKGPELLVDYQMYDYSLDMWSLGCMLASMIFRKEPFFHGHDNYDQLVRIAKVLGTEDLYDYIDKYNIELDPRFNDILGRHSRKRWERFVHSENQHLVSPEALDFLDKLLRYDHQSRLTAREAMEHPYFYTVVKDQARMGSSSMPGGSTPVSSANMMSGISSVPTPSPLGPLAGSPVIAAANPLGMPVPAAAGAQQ
T1 sequence (P67870 whole entry partner): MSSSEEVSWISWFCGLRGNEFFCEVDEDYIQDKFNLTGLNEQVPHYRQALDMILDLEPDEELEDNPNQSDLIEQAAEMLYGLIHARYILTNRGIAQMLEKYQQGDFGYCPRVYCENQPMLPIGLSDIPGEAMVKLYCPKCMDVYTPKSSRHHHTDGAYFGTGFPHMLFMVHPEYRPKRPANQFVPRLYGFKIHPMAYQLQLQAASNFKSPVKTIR
T3 sequence (P08581 25-1390): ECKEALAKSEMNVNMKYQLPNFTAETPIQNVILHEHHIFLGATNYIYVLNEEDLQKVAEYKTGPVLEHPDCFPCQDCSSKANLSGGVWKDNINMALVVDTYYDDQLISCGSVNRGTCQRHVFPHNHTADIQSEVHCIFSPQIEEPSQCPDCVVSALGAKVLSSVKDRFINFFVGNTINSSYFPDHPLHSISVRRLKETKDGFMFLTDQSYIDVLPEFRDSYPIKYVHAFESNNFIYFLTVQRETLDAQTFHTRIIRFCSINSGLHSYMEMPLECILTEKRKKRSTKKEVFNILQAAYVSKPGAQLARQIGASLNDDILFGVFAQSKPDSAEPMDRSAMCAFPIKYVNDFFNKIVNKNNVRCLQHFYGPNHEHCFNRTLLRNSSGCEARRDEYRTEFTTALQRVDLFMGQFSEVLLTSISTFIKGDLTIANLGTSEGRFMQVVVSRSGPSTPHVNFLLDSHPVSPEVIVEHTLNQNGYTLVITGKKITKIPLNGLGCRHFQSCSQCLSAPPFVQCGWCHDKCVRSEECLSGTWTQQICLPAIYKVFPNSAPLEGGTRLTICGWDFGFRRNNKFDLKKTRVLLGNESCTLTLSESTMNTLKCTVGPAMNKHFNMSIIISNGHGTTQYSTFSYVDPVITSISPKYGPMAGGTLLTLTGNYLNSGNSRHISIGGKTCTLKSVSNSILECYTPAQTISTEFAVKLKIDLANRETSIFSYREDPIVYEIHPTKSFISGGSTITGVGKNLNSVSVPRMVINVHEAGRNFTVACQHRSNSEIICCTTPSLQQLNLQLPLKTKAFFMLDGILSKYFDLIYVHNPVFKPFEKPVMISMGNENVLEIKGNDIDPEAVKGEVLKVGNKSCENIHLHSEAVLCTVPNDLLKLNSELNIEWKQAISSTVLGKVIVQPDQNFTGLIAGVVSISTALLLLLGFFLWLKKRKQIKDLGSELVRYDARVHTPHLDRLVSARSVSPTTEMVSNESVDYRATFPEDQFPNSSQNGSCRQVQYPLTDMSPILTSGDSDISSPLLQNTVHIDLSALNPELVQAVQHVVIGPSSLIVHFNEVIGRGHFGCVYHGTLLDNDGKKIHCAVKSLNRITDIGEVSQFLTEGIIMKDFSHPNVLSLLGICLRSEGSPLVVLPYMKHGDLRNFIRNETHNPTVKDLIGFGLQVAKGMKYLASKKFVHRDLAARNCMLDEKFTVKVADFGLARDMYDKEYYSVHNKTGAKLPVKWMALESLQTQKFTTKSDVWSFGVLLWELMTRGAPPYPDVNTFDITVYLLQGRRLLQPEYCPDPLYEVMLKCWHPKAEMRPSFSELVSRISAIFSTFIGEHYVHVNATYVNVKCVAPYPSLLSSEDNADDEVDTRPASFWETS

Take KAFAKLAARLYRKALARQLGVAA: in the experiment with CK2 (peptide 100 μM), the “CK2 Kinase Activity (%) (+SD %)” value is listed as 79 (12) %. The “FGFR1 Kinase Activity (%) (+SD %)” value with FGFR1 (peptide 100 μM) is 35 (1) %. For the same sequence, the “Met Kinase Activity (%) (+SD %)” value with Met (peptide 100 μM) is on record as 22 (3) %. In the experiment with PKCβI (peptide 100 μM), the “PKCβ1 Kinase Activity (%) (+SD %)” value was 23 (3) %. Besides, the “Rsk2 Kinase Activity (%) (+SD %)” value with Rsk2 (peptide 100 μM) was 6 (1) %. Moreover, in the experiment with Src (residues 1-530) (peptide 100 μM), the “Src (residues 1-530) Kinase Activity (%) (+SD %)” value is on record as 3 (0) %.

Turning to WLRRIKAWLRRIKALNRQLGVAA, the entries for the “CK2 Kinase Activity (%) (+SD %)” value with CK2 (peptide 30 μM) and with CK2 (peptide 100 μM) were 114 (4) % and 80 (14) %, respectively. Besides, the “FGFR1 Kinase Activity (%) (+SD %)” value with FGFR1 (peptide 30 μM) is 27 (1) %; with FGFR1 (peptide 100 μM), 22 (1) %. Moreover, the results for the “Met Kinase Activity (%) (+SD %)” value with Met (peptide 30 μM) and with Met (peptide 100 μM) were 30 (1) % and 17 (3) %, respectively. The “PKCβ1 Kinase Activity (%) (+SD %)” value in the experiment with PKCβI (peptide 30 μM) was 8 (4) %; in the experiment with PKCβI (peptide 100 μM), 73 (0) %. The “Rsk2 Kinase Activity (%) (+SD %)” value with Rsk2 (peptide 30 μM) was 14 (5) %; with Rsk2 (peptide 100 μM), −1 (1) %. Further, the “Src (residues 1-530) Kinase Activity (%) (+SD %)” value with Src (residues 1-530) (peptide 30 μM) is reported as 6 (1) %; with Src (residues 1-530) (peptide 100 μM), 5 (1) %.

(Values after US9327008B2, “Cell-permeant peptide-based inhibitor of kinases” (Purdue Research Foundation, priority 2008, dated 2016).)
